Laboratory results: paper doi:10.1101/2025.07.29.667502, “Single-Molecule FRET Reveals Two T4 Phage MR Complex Exonuclease States Regulated by the Mre11 Dimer Interface” (bioRxiv, 2025)

Target: T1, T4 Rad50 (wild type) (bacteriophage T4, UniProt P04522 1-560)
T1 construct: Rad50 (gp46) of bacteriophage T4; the introduction says that the T4 complex is purified without truncation of Rad50's coiled-coil; also called WT Rad50; gp46; source: E. coli BL21 (DE3), purified (nickel column)
T1 sequence (looked up): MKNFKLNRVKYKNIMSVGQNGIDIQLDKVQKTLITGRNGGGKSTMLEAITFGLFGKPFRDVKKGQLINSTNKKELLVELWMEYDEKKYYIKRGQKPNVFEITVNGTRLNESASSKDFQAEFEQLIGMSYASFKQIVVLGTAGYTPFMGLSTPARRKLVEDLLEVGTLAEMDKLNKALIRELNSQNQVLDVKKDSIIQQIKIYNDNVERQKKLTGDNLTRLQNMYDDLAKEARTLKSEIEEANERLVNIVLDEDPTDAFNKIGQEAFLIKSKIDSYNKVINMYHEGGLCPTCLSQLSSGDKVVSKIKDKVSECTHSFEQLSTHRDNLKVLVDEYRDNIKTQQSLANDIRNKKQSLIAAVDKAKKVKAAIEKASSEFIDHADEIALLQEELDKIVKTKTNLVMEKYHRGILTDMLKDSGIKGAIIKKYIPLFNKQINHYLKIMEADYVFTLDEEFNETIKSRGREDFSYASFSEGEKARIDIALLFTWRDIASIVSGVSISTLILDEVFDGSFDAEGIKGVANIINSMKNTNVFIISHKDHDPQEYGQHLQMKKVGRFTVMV
Assay: negative-stain EM; WT T4-MR complex with ATPγS, in the absence of DNA
Conditions: both partners purified

B1: T4 Mre11 (wild type) (enzyme, bacteriophage T4, UniProt P04521 1-339, looked up)
chain: MKILNLGDWHLGVKADDEWIRGIQIDGIKQAIEYSKKNGITTWIQYGDIFDVRKAITHKTMEFAREIVQTLDDAGITLHTIVGNHDLHYKNVMHPNASTELLAKYPNVKVYDKPTTVDFDGCLIDLIPWMCEENTGEILEHIKTSSASFCVGHWELNGFYFYKGMKSHGLEPDFLKTYKEVWSGHFHTISEAANVRYIGTPWTLTAGDENDPRGFWMFDTETERTEFIPNNTTWHRRIHYPFKGKIDYKDFTNLSVRVIVTEVDKNLTKFESELEKVVHSLRVVSKIDNSVESDDSEEVEVQSLQTLMEEYINAIPDITDSDREALIQYANQLYVEATQ
notes: Mre11 (gp47) of bacteriophage T4; Used together with WT Rad50 as the WT-MR complex; also called WT Mre11; gp47; source: E. coli BL21 (DE3), purified (chitin column)
B1: binds.
